± gives the uncertainty stated by the source.
Assay: abundance fitness (aPCA) (normalised: wild type 0, dead -1); higher = more abundant; growth selection in yeast, the domain comes from the species named
Details: Homo sapiens

Row | Substance | abundance fitness
1 | Transcription factor SOX-4 A121T, Q06945 | -0.009 ± 0.06
2 | Transcription factor SOX-4 D102T, Q06945 | -0.149 ± 0.05
3 | Transcription factor SOX-4 D125N, Q06945 | -0.045 ± 0.22
4 | Transcription factor SOX-4 E79V, Q06945 | -0.476 ± 0.13
5 | Transcription factor SOX-4 E88V, Q06945 | -0.649 ± 0.066
6 | Transcription factor SOX-4 I72D, Q06945 | -0.595 ± 0.46
7 | Transcription factor SOX-4 I77L, Q06945 | -0.126 ± 0.055
8 | Transcription factor SOX-4 I89L, Q06945 | -0.098 ± 0.036
9 | Transcription factor SOX-4 I106R, Q06945 | -0.209 ± 0.042
10 | Transcription factor SOX-4 K60R, Q06945 | -0.294 ± 0.066
11 | Transcription factor SOX-4 K95Q, Q06945 | 0.115 ± 0.14
12 | Transcription factor SOX-4 K101T, Q06945 | -0.029 ± 0.065
13 | Transcription factor SOX-4 L99A, Q06945 | 0.041 ± 0.062
14 | Transcription factor SOX-4 M78A, Q06945 | -0.006 ± 0.058
15 | Transcription factor SOX-4 M84L, Q06945 | 0.014 ± 0.055
16 | Transcription factor SOX-4 M120L, Q06945 | -0.047 ± 0.082
17 | Transcription factor SOX-4 R75K, Q06945 | 0.07 ± 0.046
18 | Transcription factor SOX-4 R92M, Q06945 | 0.128 ± 0.11
19 | Transcription factor SOX-4 R96S, Q06945 | -0.162 ± 0.17
20 | Transcription factor SOX-4 S70A, Q06945 | 0.014 ± 0.057
21 | Transcription factor SOX-4 S81N, Q06945 | 0.007 ± 0.056
22 | Transcription factor SOX-4 S103L, Q06945 | -0.454 ± 0.082
23 | Transcription factor SOX-4 Y123H, Q06945 | -0.03 ± 0.12

Same assay, conditions: Saccharomyces cerevisiae (strain ATCC 204508 / S288c)

Row | Substance | abundance fitness
24 | E3 ubiquitin-protein ligase RSP5 V350A, P39940 | -0.275 ± 0.043
25 | E3 ubiquitin-protein ligase RSP5 V350C, P39940 | -0.097 ± 0.066
26 | E3 ubiquitin-protein ligase RSP5 V350D, P39940 | -0.604 ± 0.11
27 | E3 ubiquitin-protein ligase RSP5 V350E, P39940 | -0.346 ± 0.057
28 | E3 ubiquitin-protein ligase RSP5 V350F, P39940 | 0.044 ± 0.13
29 | E3 ubiquitin-protein ligase RSP5 V350G, P39940 | -0.891 ± 0.046
30 | E3 ubiquitin-protein ligase RSP5 V350K, P39940 | -0.537 ± 0.065
31 | E3 ubiquitin-protein ligase RSP5 V350L, P39940 | 0.028 ± 0.048
32 | E3 ubiquitin-protein ligase RSP5 V350M, P39940 | 0.109 ± 0.085
33 | E3 ubiquitin-protein ligase RSP5 V350N, P39940 | -0.49 ± 0.095
34 | E3 ubiquitin-protein ligase RSP5 V350Q, P39940 | -0.295 ± 0.066
35 | E3 ubiquitin-protein ligase RSP5 V350R, P39940 | -0.546 ± 0.042
36 | E3 ubiquitin-protein ligase RSP5 V350S, P39940 | -0.502 ± 0.078
37 | E3 ubiquitin-protein ligase RSP5 V350W, P39940 | -0.359 ± 0.057
38 | E3 ubiquitin-protein ligase RSP5 V350Y, P39940 | -0.136 ± 0.14
39 | E3 ubiquitin-protein ligase RSP5 V360A, P39940 | -0.161 ± 0.046
40 | E3 ubiquitin-protein ligase RSP5 V360C, P39940 | -0.018 ± 0.062
41 | E3 ubiquitin-protein ligase RSP5 V360D, P39940 | -0.098 ± 0.056
42 | E3 ubiquitin-protein ligase RSP5 V360E, P39940 | -0.154 ± 0.053
43 | E3 ubiquitin-protein ligase RSP5 V360F, P39940 | 0.058 ± 0.11
44 | E3 ubiquitin-protein ligase RSP5 V360H, P39940 | 0.043 ± 0.059
45 | E3 ubiquitin-protein ligase RSP5 V360I, P39940 | 0.186 ± 0.1
46 | E3 ubiquitin-protein ligase RSP5 V360L, P39940 | -0.03 ± 0.044
47 | E3 ubiquitin-protein ligase RSP5 V360M, P39940 | 0.022 ± 0.062
48 | E3 ubiquitin-protein ligase RSP5 V360N, P39940 | 0.014 ± 0.093
49 | E3 ubiquitin-protein ligase RSP5 V360P, P39940 | -0.871 ± 0.061
50 | E3 ubiquitin-protein ligase RSP5 V360Q, P39940 | -0.184 ± 0.15

Row | Substance | abundance fitness
51 | E3 ubiquitin-protein ligase RSP5 V360R, P39940 | -0.207 ± 0.041
52 | E3 ubiquitin-protein ligase RSP5 V360T, P39940 | -0.095 ± 0.064
53 | E3 ubiquitin-protein ligase RSP5 V360W, P39940 | -0.06 ± 0.069
54 | E3 ubiquitin-protein ligase RSP5 V360Y, P39940 | 0.194 ± 0.084
55 | E3 ubiquitin-protein ligase RSP5 W337A, P39940 | -0.649 ± 0.06
56 | E3 ubiquitin-protein ligase RSP5 W337C, P39940 | -0.4 ± 0.087
57 | E3 ubiquitin-protein ligase RSP5 W337D, P39940 | -0.504 ± 0.074
58 | E3 ubiquitin-protein ligase RSP5 W337E, P39940 | -0.525 ± 0.066
59 | E3 ubiquitin-protein ligase RSP5 W337F, P39940 | -0.045 ± 0.093
60 | E3 ubiquitin-protein ligase RSP5 W337G, P39940 | -0.503 ± 0.051
61 | E3 ubiquitin-protein ligase RSP5 W337H, P39940 | -0.539 ± 0.076
62 | E3 ubiquitin-protein ligase RSP5 W337I, P39940 | -0.23 ± 0.085
63 | E3 ubiquitin-protein ligase RSP5 W337K, P39940 | -0.713 ± 0.073
64 | E3 ubiquitin-protein ligase RSP5 W337L, P39940 | -0.53 ± 0.06
65 | E3 ubiquitin-protein ligase RSP5 W337N, P39940 | -0.641 ± 0.14
66 | E3 ubiquitin-protein ligase RSP5 W337P, P39940 | -0.883 ± 0.061
67 | E3 ubiquitin-protein ligase RSP5 W337Q, P39940 | -0.637 ± 0.11
68 | E3 ubiquitin-protein ligase RSP5 W337R, P39940 | -0.771 ± 0.052
69 | E3 ubiquitin-protein ligase RSP5 W337S, P39940 | -0.622 ± 0.052
70 | E3 ubiquitin-protein ligase RSP5 W337Y, P39940 | -0.366 ± 0.1
71 | E3 ubiquitin-protein ligase RSP5 W359C, P39940 | -0.336 ± 0.085
72 | E3 ubiquitin-protein ligase RSP5 W359D, P39940 | -0.225 ± 0.059
73 | E3 ubiquitin-protein ligase RSP5 W359E, P39940 | -0.271 ± 0.071
74 | E3 ubiquitin-protein ligase RSP5 W359G, P39940 | -0.441 ± 0.045
75 | E3 ubiquitin-protein ligase RSP5 W359I, P39940 | -0.258 ± 0.1
76 | E3 ubiquitin-protein ligase RSP5 W359K, P39940 | -0.446 ± 0.11
77 | E3 ubiquitin-protein ligase RSP5 W359L, P39940 | -0.203 ± 0.066

Row | Substance | abundance fitness
78 | E3 ubiquitin-protein ligase RSP5 W359N, P39940 | -0.198 ± 0.091
79 | E3 ubiquitin-protein ligase RSP5 W359P, P39940 | -0.447 ± 0.059
80 | E3 ubiquitin-protein ligase RSP5 W359Q, P39940 | -0.278 ± 0.08
81 | E3 ubiquitin-protein ligase RSP5 W359R, P39940 | -0.265 ± 0.067
82 | E3 ubiquitin-protein ligase RSP5 W359S, P39940 | -0.249 ± 0.049
83 | E3 ubiquitin-protein ligase RSP5 W359T, P39940 | -0.342 ± 0.055
84 | E3 ubiquitin-protein ligase RSP5 W359V, P39940 | -0.416 ± 0.045
85 | E3 ubiquitin-protein ligase RSP5 W359Y, P39940 | 0.171 ± 0.08
86 | E3 ubiquitin-protein ligase RSP5 Y348A, P39940 | -0.936 ± 0.073
87 | E3 ubiquitin-protein ligase RSP5 Y348C, P39940 | -0.574 ± 0.09
88 | E3 ubiquitin-protein ligase RSP5 Y348D, P39940 | -0.879 ± 0.091
89 | E3 ubiquitin-protein ligase RSP5 Y348E, P39940 | -0.664 ± 0.062
90 | E3 ubiquitin-protein ligase RSP5 Y348F, P39940 | -0.146 ± 0.09
91 | E3 ubiquitin-protein ligase RSP5 Y348G, P39940 | -0.796 ± 0.043
92 | E3 ubiquitin-protein ligase RSP5 Y348H, P39940 | -0.699 ± 0.16
93 | E3 ubiquitin-protein ligase RSP5 Y348K, P39940 | -0.666 ± 0.072
94 | E3 ubiquitin-protein ligase RSP5 Y348L, P39940 | -0.504 ± 0.068
95 | E3 ubiquitin-protein ligase RSP5 Y348M, P39940 | -0.354 ± 0.092
96 | E3 ubiquitin-protein ligase RSP5 Y348P, P39940 | -1.17 ± 0.086
97 | E3 ubiquitin-protein ligase RSP5 Y348Q, P39940 | -0.637 ± 0.054
98 | E3 ubiquitin-protein ligase RSP5 Y348R, P39940 | -0.919 ± 0.049
99 | E3 ubiquitin-protein ligase RSP5 Y348S, P39940 | -0.738 ± 0.077
100 | E3 ubiquitin-protein ligase RSP5 Y348T, P39940 | -0.686 ± 0.087
101 | E3 ubiquitin-protein ligase RSP5 Y348V, P39940 | -0.585 ± 0.048
102 | E3 ubiquitin-protein ligase RSP5 Y348W, P39940 | -0.147 ± 0.049
